Measured values reported in patent US20260351346 (published 2026).

These binders were tested against TNFRSF9 (CD137) (human) (assay: ELISA).
Sequence of TNFRSF9 (CD137) (human) (chain, as listed by the source): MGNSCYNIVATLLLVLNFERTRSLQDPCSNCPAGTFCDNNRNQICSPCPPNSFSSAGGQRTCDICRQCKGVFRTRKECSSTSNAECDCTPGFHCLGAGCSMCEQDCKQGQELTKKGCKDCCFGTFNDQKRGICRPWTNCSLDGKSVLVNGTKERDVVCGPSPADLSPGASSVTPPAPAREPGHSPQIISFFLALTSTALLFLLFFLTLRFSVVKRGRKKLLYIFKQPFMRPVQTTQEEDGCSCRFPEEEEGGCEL

Binder	EC50 [ng/mL]
4C2-Candi4 (antibody, V domains shown) VH: EVQLEESGGGVVQPGGSLKLSCTVSGFSLGTFPIGWVRQAPGKGLEWVGIFNTDGSAAYAASVKGRFTVSKNSTKNTVYLHMNSLKTEDTAVYFCARINADYSGWYFGIWGQGTLVTVSS VL: DIQMTQSPSSLSVSVGGRVTITCQASQSIYSYLAWYQQKPGKAPKLLIYEASKTPSGVPSRFNGNGSGTEYTLTISSLQPEDSATYYCQKGYSVSNVAFGGGTEVEIK	2.46
4C2-WTH (antibody, V domains shown) VH: QSVEESGGRLVTPGTPLTLTCTVSGFSLGTFPIGWVRQAPGSGLEWIGIFNTDGSAAYASWARGRFTVFKNSTTVDLKMTSPTTEDTATYFCARINADYSGWYFGIWGPGTLVTVSS VL: EMTQTPASVEVAVGGTVTIKCQASQSIYSYLAWYQQKPGQPPKPLIYEASKTPSGVPSRFKGSGSGTEYTLTISGVQCEDAATYYCQKGYSVSNVAFGGGTEVVVK	3.8
4C2-Candi2 (antibody, V domains shown) VH: EVQLEESGGGLVQPGMSLRLSCTVSGFSLGTFPIGWVRQAPGKGLEWVGIFNTDGSAAYAASVKGRFNVSKNSTKNTVYLHMNSLKTEDTAVYFCARINADYSGWYFGIWGQGTLVTVSS VL: AQQMTQSPSSLSVSVGGRVTITCQASQSIYSYLAWYQQKPGKAPKLLIYEASKTPSGVPSRFNGNGSGTEYTLTISSLQPEDSATYYCQKGYSVSNVAFGGGTEVEIK	2.38
4C2-Candi3 (antibody, V domains shown) VH: EVQLEESGGGLVQPGGSLALSCTVSGFSLGTFPIGWVRQAPGKGLEWVGIFNTDGSAAYAASVKGRFTVSRDSSKNTVYLHMNSLKTEDTAVYFCARINADYSGWYFGIWGQGTLVTVSS VL: DIQMTQSPSSLSASVGGRVTITCQASQSIYSYLAWYQQKPGKAPKLLIYEASKTPSGVPSRFNGNGSGTDFTLTISSLQPEDSATYYCQKGYSVSNVAFGGGTEVEIK	100
